Publication PMC3227520 (Biochemistry, 2011)
Read-outs that look alike come from different tables or passages of the source. Primed or numbered codes have the meaning given here. *: point of attachment. FITC = O=C1OC2(c3ccc(O)cc3Oc3cc(O)ccc32)c2ccc(NC(=S)*)cc21; FITC′ = fluorescein isothiocyanate label; Ahx = NCCCCCC(=O)O

B1: wild-type S100A4 (native noncovalent S100A4 dimer) (natural protein)
chain: not shown
B3: FITC-MIIA^1904–1927 (nonmuscle myosin-IIA 24mer peptide) (peptide)
peptide: {FITC-Ahx}-TETADAMNREVSSLKNKLRRGDLP-NH2
SMILES: CSCC[C@H](NC(=O)[C@H](C)NC(=O)[C@H](CC(=O)O)NC(=O)[C@H](C)NC(=O)[C@@H](NC(=O)[C@H](CCC(=O)O)NC(=O)[C@@H](NC(=O)CCCCCNC(=S)Nc1ccc2c(c1)C(=O)OC21c2ccc(O)cc2Oc2cc(O)ccc21)[C@@H](C)O)[C@@H](C)O)C(=O)N[C@@H](CC(N)=O)C(=O)N[C@@H](CCCNC(=N)N)C(=O)N[C@@H](CCC(=O)O)C(=O)N[C@H](C(=O)N[C@@H](CO)C(=O)N[C@@H](CO)C(=O)N[C@@H](CC(C)C)C(=O)N[C@@H](CCCCN)C(=O)N[C@@H](CC(N)=O)C(=O)N[C@@H](CCCCN)C(=O)N[C@@H](CC(C)C)C(=O)N[C@@H](CCCNC(=N)N)C(=O)N[C@@H](CCCNC(=N)N)C(=O)NCC(=O)N[C@@H](CC(=O)O)C(=O)N[C@@H](CC(C)C)C(=O)N1CCC[C@H]1C(N)=O)C(C)C

Key:
[1] = target: B3; assay: fluorescence polarisation
[2] = target: the molecule itself; assay: cross-linking
[3] = target: B1; assay: fluorescence polarisation
[4] = target: B1; assay: fluorescence polarisation; remark: listed apart in the source

## B1
[1]
  stoichiometry N: 1 S100A4 dimer per peptide

B2: MIIA^1851–1960 (nonmuscle myosin-IIA heavy chain fragment) (domain or fragment, UniProt P35579 1851-1960, looked up)
chain: VDDERRNAEQYKDQADKASTRLKQLKRQLEEAEEEAQRANASRRKLQRELEDATETADAMNREVSSLKNKLRRGDLPFVVPRRMARKGAGDGSDEEVDGKADGAEAKPAE
[2]
  stoichiometry N: 2

## {FITC′-Ahx}-DAMNREVSSLKNKLRR-NH2 [FITC-MIIA^1908–1923 (nonmuscle myosin-IIA peptide, minimal S100A4 binding site)]
[3]
  Kd: 1800 ± 200 nM

## B3
[4]
  Kd: 260 ± 30 nM
